The record followed here is the supplement of paper PMC10724198.

This data set concerns Saccharomyces cerevisiae. Nature of the data set: protein stability index of tFT-peptide fusion (C-terminal peptide) (PSI (0-1 scale)); higher = more stable (slower turnover). Particulars: temperature: 30 C. On the procedure: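 MPS profiling in S. cerevisiae of the yeast C-terminome library: the last 12 aa of each annotated ORF are fused to the C-terminus of a sfGFP-mCherry timer, after a GGGS linker. Cells are FACS-sorted into 8 mCherry/sfGFP bins and deep-sequenced. PSI runs from 0 (unstable) to 1 (stable); wild type and das1Δ backgrounds, two technical replicates each.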

[1] abbreviates: genetic background: das1 deletion.

± gives the standard deviation of the averaged measurements.

For the sequence AVHLQAIDLLNC [PIR1 C-terminal 12 aa], the protein stability index was 0.714 ± 0.024 under setting [1] and 0.672 ± 0.01 (genetic background: wild type).
Regarding AVIVHSYTVQHM [TRM3 C-terminal 12 aa], the protein stability index amounted to 0.695 ± 0.032 under setting [1] and 0.632 ± 0.046 (genetic background: wild type).
Take AVKINRNGKPRI [TAO3 C-terminal 12 aa]: the protein stability index runs as follows: under setting [1], 0.698 ± 0.014; (genetic background: wild type) 0.6846 ± 0.0048.
Regarding AVVLQSIQFTSE [IML3 C-terminal 12 aa], the protein stability index amounted to 0.621 ± 0.018 under setting [1] and 0.608 ± 0.024 (genetic background: wild type).
Consider AWDKFKLQNDIN [SWA2 C-terminal 12 aa], for which the protein stability index amounted to 0.736 ± 0.015 under setting [1] and 0.698 ± 0.03 (genetic background: wild type).
The corresponding values for AYFIDVVGCSGL [LIH1 C-terminal 12 aa] are 0.706 ± 0.00073 and 0.705 ± 0.025.
As to AYLLFYTIRQVN [UBP8 C-terminal 12 aa], the protein stability index runs as follows: under setting [1], 0.366 ± 0.012; (genetic background: wild type) 0.14 ± 0.011.
Regarding AYQIRQEVLQSL [SGA1 C-terminal 12 aa], the protein stability index runs as follows: under setting [1], 0.65923 ± 0.00056; (genetic background: wild type) 0.672 ± 0.012.
On the same counts, the results for AYVLFYHRVYGV [DOA4 C-terminal 12 aa] are 0.691 ± 0.011 and 0.648 ± 0.026.
On to CDIQEEQVDITA [PUP1 C-terminal 12 aa], for which the protein stability index was determined as 0.695 ± 0.0088 under setting [1] and 0.682 ± 0.015 (genetic background: wild type).
On the same counts, the results for “CEYGTNAIDALI [YER091C-A C-terminal 12 aa]” are 0.7311 ± 0.0014 and 0.6917 ± 0.0036.
As to CICSGMLFEMDG [SIN4 C-terminal 12 aa], the protein stability index was determined as 0.696 ± 0.011 under setting [1] and 0.716 ± 0.067 (genetic background: wild type).
On the same counts, the results for CIPLINYHLRKS [CBS1 C-terminal 12 aa] are 0.709 ± 0.022 and 0.673 ± 0.023.
Consider CKDQTVTQILAT [DMO1 C-terminal 12 aa], for which the protein stability index reads like this: under setting [1], 0.6533 ± 0.0054; (genetic background: wild type) 0.682 ± 0.029.
The sequence “CLCLINLCCDVF [YDR034W-B C-terminal 12 aa]” yielded a protein stability index under setting [1] of 0.267 ± 0.0034 and a protein stability index (genetic background: wild type) of 0.295 ± 0.0068.
With CMESNPPVFMAI [YNL296W C-terminal 12 aa], the protein stability index is, setting by setting: under setting [1], 0.709 ± 0.035; (genetic background: wild type) 0.713 ± 0.021.
In turn, CRGIAEVNMKYT [PPS1 C-terminal 12 aa] returned a protein stability index under setting [1] of 0.6869 ± 0.0036 and a protein stability index (genetic background: wild type) of 0.6326 ± 0.0059.
As for CTFIYFLYFSLF [YBL070C C-terminal 12 aa], the protein stability index is, setting by setting: under setting [1], 0.325 ± 0.0072; (genetic background: wild type) 0.288 ± 0.03.
The corresponding values for CWENVRKTRAAK [PSO2 C-terminal 12 aa] are 0.692 ± 0.0083 and 0.6966 ± 0.005.
On to CYTEEEWSKIVV [BOL2 C-terminal 12 aa], for which the protein stability index by setting is: under setting [1], 0.7072 ± 0.003; (genetic background: wild type) 0.717 ± 0.019.
On the same counts, the results for DACIKRWNVVLE [AIP1 C-terminal 12 aa] are 0.684 ± 0.023 and 0.71 ± 0.049.
On the same counts, the results for DDDDDDDGQITA [YHR131C C-terminal 12 aa] are 0.677 ± 0.027 and 0.6663 ± 0.004.
Take DDEIDSEEDENA [SDD3 C-terminal 12 aa]: the protein stability index amounted to 0.69 ± 0.035 under setting [1] and 0.653 ± 0.018 (genetic background: wild type).
Turning to DDFKKAFREKRK [ALY1 C-terminal 12 aa], the protein stability index was 0.729 ± 0.013 under setting [1] and 0.676 ± 0.044 (genetic background: wild type).
On the same counts, the results for DEDDDEDVTDQE [DLS1 C-terminal 12 aa] are 0.6663 ± 0.004 and 0.677 ± 0.013.
The corresponding values for DEEEEIEPEVKA [SBA1 C-terminal 12 aa] are 0.678 ± 0.017 and 0.685 ± 0.027.
For the sequence DEQPTLSQSKTK [DAD1 C-terminal 12 aa], the protein stability index by setting is: under setting [1], 0.708 ± 0.012; (genetic background: wild type) 0.714 ± 0.076.
On to DFIKNPNDYFKQ [BEM2 C-terminal 12 aa], for which the protein stability index is, setting by setting: under setting [1], 0.73319 ± 0.00064; (genetic background: wild type) 0.729 ± 0.1.
For DFSASSSVEEVK [MFT1 C-terminal 12 aa], the protein stability index runs as follows: under setting [1], 0.7088 ± 0.004; (genetic background: wild type) 0.662 ± 0.011.
The corresponding values for DGTTSKDSEKKK [COA4 C-terminal 12 aa] are 0.708 ± 0.011 and 0.648 ± 0.011.
On the same counts, the results for DHDVSLEEVINI [MCY1 C-terminal 12 aa] are 0.722 ± 0.034 and 0.706 ± 0.02.
On the same counts, the results for DIFDPVDFVSFF [OAF3 C-terminal 12 aa] are 0.772 ± 0.033 and 0.752 ± 0.034.
For the sequence DILGFKIAPRSA [YGR210C C-terminal 12 aa], the protein stability index by setting is: under setting [1], 0.682 ± 0.049; (genetic background: wild type) 0.7073 ± 0.0013.
The corresponding values for DILGSLLAKKRK [MRE11 C-terminal 12 aa] are 0.681 ± 0.023 and 0.672 ± 0.022.
The corresponding values for DILLSCIADLTI [POL2 C-terminal 12 aa] are 0.71 ± 0.04 and 0.707 ± 0.054.
On the same counts, the results for DISDSEGGLFEC [PCI8 C-terminal 12 aa] are 0.69 ± 0.085 and 0.694 ± 0.085.
In the case of DIYNQLHMFGEK [IGD1 C-terminal 12 aa], the protein stability index reads like this: under setting [1], 0.663 ± 0.0086; (genetic background: wild type) 0.688 ± 0.01.
The corresponding values for DKEVVYFDEWTI [RPC34 C-terminal 12 aa] are 0.726 ± 0.062 and 0.729 ± 0.032.
Consider DKLAKLLSLDIH [MSH3 C-terminal 12 aa], for which the protein stability index by setting is: under setting [1], 0.7167 ± 0.0065; (genetic background: wild type) 0.708 ± 0.025.
Turning to DKVPVHYPPVVE [SYM1 C-terminal 12 aa], the protein stability index is 0.686 ± 0.028 under setting [1] and 0.709 ± 0.045 (genetic background: wild type).
Consider DLAERLAETEIK [RNA1 C-terminal 12 aa], for which the protein stability index was 0.703 ± 0.0088 under setting [1] and 0.692 ± 0.024 (genetic background: wild type).
As for DLASFIKKSLSS [TML25 C-terminal 12 aa], the protein stability index amounted to 0.694 ± 0.017 under setting [1] and 0.734 ± 0.032 (genetic background: wild type).
The corresponding values for DLKIYLQQDESL [YEL023C C-terminal 12 aa] are 0.709 ± 0.028 and 0.672 ± 0.015.
On the same counts, the results for DNPETKNGRENK [ECM10 C-terminal 12 aa] are 0.675 ± 0.016 and 0.6426 ± 0.00097.
Regarding DPNGILNPYKYI [DLD2 C-terminal 12 aa], the protein stability index amounted to 0.708 ± 0.024 under setting [1] and 0.6117 ± 0.003 (genetic background: wild type).
The corresponding values for DQFQLITQGIYS [PIK1 C-terminal 12 aa] are 0.722 ± 0.034 and 0.717 ± 0.099.
The corresponding values for DQLLALYEDGLL [AHC2 C-terminal 12 aa] are 0.7371 ± 0.0043 and 0.72 ± 0.043.
On the same counts, the results for DRVGEVFAKLFG [NNR2 C-terminal 12 aa] are 0.7119 ± 0.0012 and 0.728 ± 0.011.
DSERKVLSEALL [KAP114 C-terminal 12 aa]: the protein stability index by setting is: under setting [1], 0.676 ± 0.013; (genetic background: wild type) 0.6846 ± 0.0027.
Take DSFFFDVLAQLP [YLR434C C-terminal 12 aa]: the protein stability index is, setting by setting: under setting [1], 0.7357 ± 0.0072; (genetic background: wild type) 0.686 ± 0.012.
